The text below walks through data of US20140322218A1 (Amgen, published 2014).

Changes are numbered by the printed parent chain. Names and notes keep the numbering of the source.

What all share (assay): FACS, transfected 293T
(A flow cytometer gives signals particle by particle.)

The target of experiment [1] is T1, huCDH19(44-772), Flag-tagged, on 293T cells (human, UniProt Q9H159 44-772).
T1 construct: Expressed with native leader (1-43) followed by a Flag tag; leader left out; also called Hu EC1-5
Excerpt: (§1) The experiment included assaying the anti-CDH19 antibodies against mouse Cadherin19 to determine suitability for binning on these human/mouse chimeras.

The target of experiment [2] is T2, huCDH19(44-249)::muCDH19(248-770), Flag-tagged, on 293T cells (human/mouse chimera).
T2 construct: also called Hu EC1-2; C137896
Excerpt: as §1

Experiment [3] concerns the target T3, huCDH19(44-141)::muCDH19(140-770), Flag-tagged, on 293T cells (human/mouse chimera).
T3 construct: also called Hu EC1
Excerpt: as §1

B1: hu anti-<huCDH19> 25F8.1 VH::huIgG1z / 25F8.1 (1-235)(K45Q,S102A) VL::huLLC-C2 (Ab ID 14094) (antibody, V domains shown)
VH: QVQLVQSGAEVKKPGASVKVSCKASGYTFTSYYIHWVRQAPGQGLEWMGIINPSGGSTRYAQKFQGRVTMTRDTSTSTVFMELSSLRSEDTAVYYCARGGIQLWLHFDYWGQGTLVTVSS
VL: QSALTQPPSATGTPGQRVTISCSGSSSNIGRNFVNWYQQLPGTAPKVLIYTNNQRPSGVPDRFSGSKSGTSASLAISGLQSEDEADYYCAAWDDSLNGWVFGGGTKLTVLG
notes: Engineered variant of 25F8
On to B1, for which the binding result in experiment [1], in experiment [2] and in experiment [3] was “binds” throughout.

B2: hu anti-<huCDH19> 26D1.1 (1-469)(R27G,G82R) VH::huIgG1z / 26D1.1 (1-235)(H1Q,S7P) VL::huLLC-C2 (Ab ID 14088) (antibody, V domains shown)
VH: B1 VH with I34M, H35S, N52H, S57D, R59T, F80Y, Q102K
VL: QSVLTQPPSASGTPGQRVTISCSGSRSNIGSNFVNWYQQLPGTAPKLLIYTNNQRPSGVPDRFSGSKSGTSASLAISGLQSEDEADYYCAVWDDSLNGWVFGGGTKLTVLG
notes: Engineered variant of 26D1
For the molecule B2, the binding result in experiment [1], in experiment [2] and in experiment [3] was “binds” each time.

B3: hu anti-<huCDH19> 4B10 (1-471)(R17G,D61E,D72E) VH::huIgG1z / 4B10 (1-236)(H45Q,A90T) VL::huKLC (Ab ID 14055) (antibody, V domains shown)
VH: QVQLVESGGGVVQPGGSLRLSCAASGFTFSSYDMHWVRQAPGKGLEWVAVISYEGTNEYYAESVKGRFTISRDTSKNTLYLQMNSLRAEDTAVYYCARERYFDWSFDYWGQGTLVSVSS
VL: EIVLTQSPGTLSLSPGERATLSCRASQSVSNTYLAWYQQRPGQAPRLLIYGASSRATGIPDRFSGSGSGTDFTLTISSLEPEDFAVYYCQQYSNSWTFGQGTKVEIKR
notes: Engineered variant of 4B10
With B3, the binding result in experiment [1] was “binds”.

B4: hu anti-<huCDH19> 4A9 VH::huIgG1z / 4A9 (1-239)(F47L) VL::huLLC-C1 (Ab ID 14056) (antibody, V domains shown)
VH: QVQLQESGPGLVKPSETLSLTCTVSGGSISGYYWSWIRQPPGKGLEWFAYFSYSGSTNYNPSLKSRVTLSVDTSKNQFSLKLSSVTAADTAVYYCARNWAFHFDFWGQGTLVTVSS
VL: QSVLTQPPSVSGAPGQRVTISCTGSSSNIGTGYAVHWYQQLPGTAPKLLIYGNNNRPSGVPDRFSGSKSGTSASLAITGLQAEDEADYYCQSYDSRLSGWVFGGGTKLTVLG
notes: Engineered variant of 4A9
As for B4, the binding result in experiment [1], in experiment [2] and in experiment [3] was “binds” in each case.

B5: hu anti-<huCDH19> 4A9 (1-468)(F55I,A56G) VH::huIgG1z / 4A9 (1-239)(F47L) VL::huLLC-C1 (Ab ID 14057) (antibody, V domains shown)
VH: B4 VH with F48I, A49G
VL: B4 VL
notes: Engineered variant of 4A9
Consider B5, for which the binding result in experiment [1], in experiment [2] and in experiment [3] was “binds” throughout.
